{"source": "paper PMC11772769", "about": "“Selective cargo and membrane recognition by SNX17 regulates its interaction with Retriever” (EMBO Reports, 2024)", "key": {"VPS26C": {"molecular_target": "T1, VPS26C (Homo sapiens, UniProt O14972)", "T1 construct": "His-Sumo3 (N, cleaved yes); made in house; host or cells: Escherichia coli BL21(DE3)", "assay": "Isothermal titration calorimetry VPS26C with SNX17FERM-CT", "type": "binding", "conditions": "ITC, 30 μM VPS26C and 300 μM SNX17FERM-CT, 25 mM Hepes pH 7.5, 150 mM NaCl, 25 °C; also pull-down", "procedure": "Isothermal titration calorimetry (ITC) experiments were carried out on a Nano ITC calorimeter (TA Instruments). VPS26C and SNX17FERM-CT were dialyzed overnight at 4 °C against 25 mM Hepes pH 7.5, 150 mM NaCl, and 0.5 mM TCEP, and degassed for 30 min at 25 °C before titration. The titration experiments were conducted at 25 °C with one initial 1.5 μl injection followed by 19 injections of 2.5 μl with a spacing of 300 s between injections. To determine the heat of dilution similar injections of SNX17FERM-CT in buffer were carried out. The resulting titration data were analyzed using NanoAnalyze software (TA Instruments)."}, "[1]": {"assay": "Liposome co-sedimentation assay", "type": "binding", "conditions": "protein alone (2 μM) with PI3P-containing LUVs (1 mM), 25 mM Hepes pH 7.5, 200 mM NaCl, 1 h room temperature; Coomassie densitometry; mean ± SD", "procedure": "All lipids were purchased from Avanti Polar Lipids, INC. (Alabaster, AL) and dissolved in a final 20:9 molar ratio of chloroform:methanol. The lipid composition of liposomes consisted of DOPC, DOPE, DOPS, 18:1 PI(3)P, and 1,2-dioleoyl-sn-glycero-3-phosphoethanolamine-N-(lissamine rhodamine B sulfonyl) (18:1 Liss Rhod PE) in a final molar ratio of 44.7:29.3:20.0:5.0:1.0, respectively. Vesicles were prepared using the same thin-film hydration method described for GUVs, followed by extrusion to get a more homogeneous vesicle population. A mini extruder (Avanti Polar Lipids) and Whatman Nucleopore track-etched membranes with a pore size of 0.4 μm (Cytiva) were used to obtain Large Unilamellar Vesicles (LUVs). The extrusion buffer (25 mM Hepes pH 7.5, 1 mM TCEP) was supplemented with 250 mM raffinose pentahydrate to produce vesicles filled with raffinose. These vesicles can be separated from the aqueous solution in co-sedimentation assays by centrifugation (Julkowska et al, [2013]). […]\nFor co-sedimentation experiments, the working buffer (25 mM Hepes pH 7.5, 200 mM NaCl, 1 mM TCEP), proteins (Retriever, HisSumo-SNX17, and His10-L2FBR or His10-LRP1ICD in a 2:2:4 μM ratio), and liposomes (1 mM final concentration) were sequentially mixed into 0.5 ml tubes. […] Quantification of signal intensity was determined using Empiria Studio Software (LI-COR). […]"}}}
{"substance": "SNX17: recombinant sorting nexin 17; His-Sumo3-SNX17 in co-sedimentation, SNX17FERM-CT in ITC", "values": [{"measurement": "interaction with VPS26C", "setting": "VPS26C", "value": "no direct interaction"}, {"measurement": "percentage of total protein bound to the pellet", "setting": "[1]", "value": "64 ± 17", "unit": "%"}]}
